{"source": "paper PMC3623789", "experiment": "confocal imaging, co-localisation with Na+/K+-ATPase, HEK293", "conditions": "glycan lost; control: wild-type 3xFLAG-rPRG3"}
{"protein": "rPRG3 (plasticity-related gene 3, LPR1): N163Q (protein) parent chain: MAVENNTQRSYSIIPCFIFVELVIMAGTVLLAYYFECTDTFQVHIQGFFCQDGDLMKPYPGTEEESFISPLVLYCVLAATPTAIIFIGEISMYFIKSTRESLIAEEKMILTGDCCYLSPLLRRIVRFIGVFAFGLFATDIFVNAGQVVTGHLTPYFLTVCQPNYTSTDCRAHHQFINNGNICTGDLEVIEKARRSFPSKHAALSIYSALYATMYITSTIKTKSSRLAKPVLCLGDLCTAFLTGLNRVSEYRNHCSDVIAGFILGTAVALFLGMCVVHNFKGTQGSASKPKPEDPRGVPLMAFPRIESPLETLSAQNHSASMTEVT", "values": [{"measurement": "localisation_or_trafficking", "value": "abolishes"}]}
